These results are taken from patent US20230279125A1 (published 2023).

The assay has as its target T1, extracellular domain of human IL28RA (human, UniProt Q8IU57 21-228).
T1 construct: Plates were 'coated with IL28RA'; also called hIL28RA ECD antigen; hIL28RA
T1 sequence: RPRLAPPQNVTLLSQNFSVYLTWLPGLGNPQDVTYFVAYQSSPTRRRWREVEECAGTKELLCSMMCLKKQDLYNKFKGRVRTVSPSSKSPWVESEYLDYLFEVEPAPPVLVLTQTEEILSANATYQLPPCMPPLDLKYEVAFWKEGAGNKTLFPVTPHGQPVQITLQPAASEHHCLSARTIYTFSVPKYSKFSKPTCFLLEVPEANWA
Nature of the assay: periplasmic extract ELISA on IL28RA-coated plates, A450 at least threefold over PBS-coated control. The method, then: Upon completion of the biopanning of Example 3, three 96-well plates of individual phage clones were isolated in order to perform periplasmic extract ELISA (PE-ELISA) on IL28RA coated plates to identify positive VHH binders that selectively bound IL28RA . A 96-well plate was coated with IL28RA and PBS under the same conditions. Next, wells were blocked at 37° C. for 1 h. Then, 100 µl of extracted antibodies was added to each well and incubated for 1 h. Subsequently, 100 µl of anti-tag polyclonal antibody conjugated to HRP was added to each well and incubated at 37° C. for 1 h. Plates were developed with TMB substrate. The reaction was stopped by the addition of H2SO4. Absorbance at 450 nm was read on a microtiter plate reader. […] Positive clones were sequenced, and sequences analyzed to identify unique clonotypes

B1: hIL28RA VHH10 (VHH, not shown: large carriers)
VHH: QVQLQESGGGSVQAGGSLRLSCASSGYISSRSTYCMGWFRQAPGKEREVAAVVTGDSRTYYGDSVKGRFAISRDNAKNTLYLQMNSLKPEDTAMYYCAAGPPPCITTMPAGGDYGYRYWGQGTQVTVSS
notes: Camel VHH tested as periplasmic extract of a phage clone (PE-ELISA); also called anti-human IL28RA VHH
As to B1, the binding result is “binds”.

B2: hIL28RA VHH12 (VHH, not shown: large carriers)
VHH: QVQLQESGGGSVQAGGSLRLSCASSGYISSRSTYCMGWFRQAPGKEREVAAIVTGDSRTYYGDSVRGRFAISRDNAKNTLYLQMNSLKPEDTAMYYCAAGPPPCITSMPAGGDYGYRYWGQGTQVTVSS
notes: as for B1
As to B2, the binding result is recorded as “binds”.

B3: hIL28RA VHH14 (VHH, not shown: large carriers)
VHH: QVQLQESGGGSVQAGGSLRLSCASSGYISRSSYCMGWFRQAPGKEREVAAIVTGDGRTYYGDSVKGRFAISRDNAKNTLYLQMNSLKPEDTAMYYCVAGPPPCITTMPAGGDYGYRYWGRGTQVTVSS
notes: as for B1
In the case of B3, the binding result is recorded as “binds”.

B4: hIL28RA VHH1 (VHH, not shown: large carriers)
VHH: QVQLQESGGGSVQAGGSLRLSCASSGYISSSYCMAWFRQAPGKEREGAAGVTRDGKTYYGDSVKGRFAISRDNAKNTLYLQMNSLKPEDTAMYYCAAGPPPCITSMPAGGDYGYRYWGQGTQVTVSS
notes: as for B1
On to B4, for which the binding result is listed as “binds”.

B5: hIL28RA VHH11 (VHH, not shown: large carriers)
VHH: QVQLQESGGGSVQSGGSLRLSCAASGFTYSSYCMGWFRQAPGKEREGVAAIDSDGSTSYADSVKGRFTISKDNAKNTLYLQMNSLRPEDTAMYYCAADGEYNDYVCWSTGLRYRGQGTQVTVSS
notes: as for B1
On to B5, for which the binding result was “binds”.

B6: hIL28RA VHH7 (VHH, not shown: large carriers)
VHH: QVQLQESGGGLVQPGGSLRLSCAASGFTFSNYGMSWVRQAPGKGLEWVSGINSGGDDTFYTDSVKGRFTISRDNAKNTLYLQMNSLKTEDTAMYYCAMGASGMIPRGQGTQVTVSS
notes: as for B1
Take B6: the binding result is reported as “binds”.

B7: hIL28RA VHH9 (VHH, not shown: large carriers)
VHH: QVQLQESGGGLVQPGGSLRLSCAASGFTFSNYGMSWVRQAPGKGLEWVSGINSGGDDTFYTDSVKGRFTISRDNVKNTLYLQMNSLKTEDTAMYYCAMGASGMIPRGQGTQVTVSS
notes: as for B1
B7: the binding result was “binds”.

B8: hIL28RA VHH2 (VHH, not shown: large carriers)
VHH: QVQLQESGGGLVQPGGSLRLSCAASGFTFSNYGMSWVRQAPGKGLEWVSGINSGGDDTFYTDSVKGRFTISRDNAKNTLYLQMNSLKTEDTAMYYCAMGASGMIPRGQGTQITVSS
notes: as for B1
B8: the binding result was “binds”.

B9: hIL28RA VHH5 (VHH, not shown: large carriers)
VHH: QVQLQESGGGLVQPGGSLRLSCAASGFTFSNATMSWVRQAPGKEIEWVSAISNSRGTKYYAAFVKGRFTISRDNAKNTLYLQLNNLKTEDTAMYYCTKDWKTSYSDYDLSDGQGTQVTVSS
notes: as for B1
As to B9, the binding result was “binds”.

B10: hIL28RA VHH13 (VHH, not shown: large carriers)
VHH: QVQLQESGGGLVQPGSSLRLSCAASGFTFSNATMSWVRQAPGKEIEWVSAISNSRGTKYYAAFVKGRFTISRDNAKNTLYLQLNNLKTEDTAMYYCTKDWKTSYSDYDLSDGQGTQVTVSS
notes: as for B1
For the molecule B10, the binding result is recorded as “binds”.

B11: hIL28RA VHH3 (VHH, not shown: large carriers)
VHH: QVQLQESGGGLVQPGGSLRLSCVASGFTFSDYAMSWVRQAPGMGLERVSAIGRDGSTFYPDSVKGRFTISRDNAKNTLYLQLNSLKTEDTAMYYCAKEEPGSSSRGQGTQVTVSS
notes: as for B1
With B11, the binding result is on record as “binds”.

B12: hIL28RA VHH6 (VHH, not shown: large carriers)
VHH: QVQLQESGGGLVQPGGSLRLSCAASGFTFSDYAMSWVRQAPGMGLERVSAIGRDGSTFYPDSVKGRFTISRDNAKNTLYLQLNSLKTEDTAMYYCAKEEPGSSSRGQGTQVTVSS
notes: as for B1
In the case of B12, the binding result is “binds”.

B13: hIL28RA VHH8 (VHH, not shown: large carriers)
VHH: QVQLQESGGGSVQAGGSLRLSCAVSRYTISRSDCMGWFRQAPGKEREGVARIGSDGTTSYADSVKERFTISKDNAKNILYLQMNSLKPEDTARYYCAATALLLGRGSACHKEVSVFSWWGQGTQVTVSS
notes: as for B1
B13: the binding result is “binds”.

B14: hIL28RA VHH4 (VHH, not shown: large carriers)
VHH: QVQLQESGGGSVQLGGSLRLSCLVSGSTDNIKYMGWFRQAPGKEREGVAAVYTSGGAVVYADSVKGRFTISQDDAKNTMYLQMNSLKPEDTAMYYCAASRAPAPPRLLLQRALVEYWGQGTQVTVSS
notes: as for B1
Turning to B14, the binding result is listed as “binds”.
